Reference: paper PMC11960800 (The FASEB Journal, 2025)

T1: fibulin‐4 (FBLN4), recombinant full-length human (human, UniProt O95967 24-443)
T1 sequence (looked up): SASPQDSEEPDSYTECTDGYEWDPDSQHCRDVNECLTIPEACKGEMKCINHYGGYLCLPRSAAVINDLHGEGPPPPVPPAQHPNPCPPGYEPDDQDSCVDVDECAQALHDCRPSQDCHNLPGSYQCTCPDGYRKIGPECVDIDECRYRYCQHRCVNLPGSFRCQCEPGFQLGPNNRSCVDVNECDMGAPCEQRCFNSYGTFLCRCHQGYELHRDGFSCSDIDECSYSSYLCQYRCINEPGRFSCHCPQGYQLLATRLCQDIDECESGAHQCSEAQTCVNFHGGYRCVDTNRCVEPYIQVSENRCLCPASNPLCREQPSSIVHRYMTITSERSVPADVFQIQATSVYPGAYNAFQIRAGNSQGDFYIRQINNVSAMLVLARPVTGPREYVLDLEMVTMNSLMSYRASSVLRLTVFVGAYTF


Legend:
Test in all cases: SPR
[1] = target: latent TGF‐β binding protein‐4, short isoform (LTBP4S), recombinant full-length human (human)
[2] = target: T1, fibulin‐4 (FBLN4), recombinant …
[3] = target: latent TGF‐β binding protein‐4, long isoform (LTBP4L), recombinant full-length human (human, UniProt Q8N2S1-1 28-1624)

koff [1] [s⁻¹]	koff [2] [s⁻¹]	koff [3] [s⁻¹]	Molecule
6.3e-05			recombinant syndecan-3 ectodomain (SDC3‐ED) (from UniProt O75056 48-387) (domain or fragment)
	0.00041		recombinant syndecan-2 ectodomain (SDC2‐ED) (domain or fragment, human, UniProt P34741 19-144, looked up) ESRAELTSDKDMYLDNSSIEEASGVYPIDDDDYASASGSGADEDVESPELTTSRPLPKILLTSAAPKVETTTLNIQNKIPAQTKSPEETDKEKVHLSDSERKMDPAEEDTNVYTEKHSDSLFKRTE
	0.00082	5.5e-05	recombinant syndecan-3 ectodomain (SDC3‐ED) (domain or fragment, human, UniProt O75056 48-387, looked up) QRWRSENFERPVDLEGSGDDDSFPDDELDDLYSGSGSGYFEQESGIETAMRFSPDVALAVSTTPAVLPTTNIQPVGTPFEELPSERPTLEPATSPLVVTEVPEEPSQRATTVSTTMATTAATSTGDPTVATVPATVATATPSTPAAPPFTATTAVIRTTGVRRLLPLPLTTVATARATTPEAPSPPTTAAVLDTEAPTPRLVSTATSRPRALPRPATTQEPDIPERSTLPLGTTAPGPTEVAQTPTPETFLTTIRDEPEVPVSGGPSGDFELPEEETTQPDTANEVVAVGGAAAKASSPPGTLPKGARPGPGLLDNAIDSGSSAAQLPQKSILERKEVLV
